From article PMC4995097, “Talin-KANK1 interaction controls the recruitment of cortical microtubule stabilizing complexes to focal adhesions” (eLife, 2016)
Each block holds one binder with its values, some of them ahead of it.

Experiments:
[1] = target: T1, talin1 R7-R8 (murine talin1 residues 1357–1653) (mouse, UniProt P26039 1357-1653); experiment: fluorescence polarisation; fixed 0.5 μM BODIPY-labelled KANK peptide, increasing talin R7-R8, PBS, 100 μl, room temperature, triplicate; one site total and non-specific binding model; details: both partners purified
T1 construct: talin1, mouse, residues 1357-1653 (R7-R8); 15N-labelled for NMR, unlabelled for fluorescence polarisation; Vector pet151-TOPO; also called talin R7-R8; wild type R7-R8
T1 sequence (P26039 1357-1653): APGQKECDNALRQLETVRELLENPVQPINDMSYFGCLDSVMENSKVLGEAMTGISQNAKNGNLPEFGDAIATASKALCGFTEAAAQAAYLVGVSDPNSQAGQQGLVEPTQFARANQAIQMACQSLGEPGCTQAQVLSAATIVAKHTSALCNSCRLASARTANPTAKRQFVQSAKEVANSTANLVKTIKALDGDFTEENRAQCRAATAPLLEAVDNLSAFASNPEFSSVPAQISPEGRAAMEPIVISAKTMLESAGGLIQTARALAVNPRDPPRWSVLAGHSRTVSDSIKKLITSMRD

[2] = target: T2, talin1 R7-R8 S1641E (mouse, UniProt P26039 1357-1653, S1641E); experiment: as above; details: both partners purified
T2 construct: talin1, mouse, R7-R8 (limits as the wild type: 1357-1653) with S1641E; also called S1641E mutant; source: gene synthesized by GeneArt
T2 sequence (P26039 1357-1653 S1641E): as the sequence (P26039 1357-1653) above, with S285E counted along it

- binding result [1]: binds
- binding result [2]: binds
B1: BODIPY-labeled KANK1(30–60)C peptide (peptide)
peptide: PYFVETPYGFQLDLDFVKYVDDIQKGNTIKKC
modifications: BODIPY TMR dye coupled via the carboxy terminal cysteine
notes: KANK1, human, residues 30-60; added C-terminal cysteine; also called KANK1(30–60) peptide; source: synthetic peptide (Biomatik), dye-coupled, gel filtered

- binding result [1]: binds
B2: BODIPY-labeled KANK2(31–61)C peptide (peptide)
peptide: PYSVETPYGYRLDLDFLKYVDDIEKGHTLRRC
modifications: BODIPY TMR dye coupled via the carboxy terminal cysteine
notes: KANK2, residues 31-61; added C-terminal cysteine; source: synthetic peptide (Biomatik), dye-coupled, gel filtered
